The values that follow come from patent US20130156779A1 (GlaxoSmithKline, published 2013).

Changes are numbered by the printed parent chain.

Assay [1] deals with T1, Full-length human HER3 extracellular domain (ECD) (human, UniProt P21860 20-643).
T1 construct: also called human HER3 ECD; HER-3 ECD full length
Nature of the assay: BIACORE 3000 SPR, mAb captured by anti-human Fc, ECD as analyte, 25 C. As to the method: The binding kinetics of these antibodies for was assessed using a BIACORE™ 3000. Antibodies were captured on a CM5 biosensor chip to which an immobilized anti-human IgG (Fc specific) BIACORE™ (GE Healthcare cat# BR-1008-39) monoclonal antibody had been conjugated using supplied coupling buffer (9000 RU). Full-length human HER3 ECD concentrations were injected for 120s at a flow rate of 30 ul/min. Biosensor chips were regenerated as described in Example 1. Kinetics were determined by global fitting of data to the 1:1 Langmuir model using BIACORE™ Evaluation software. Analytical runs were carried out at 25° C. using FIBS-EP as the running buffer.
Buffer cycle and double referencing were performed as described in Example 1; and 5) Regenerate biosensor chips with BIACORE™ optimized buffers.
For orientation: SPR reads the build-up and loss of mass on a sensor chip optically.

Assay [2] deals with T1, Full-length human HER3 extracellular …. As to the kind of experiment: BIACORE 2000 SPR, mAb captured, HER3 protein as analyte, 25 C. The method, then: (§1) Mouse monoclonal antibodies were analysed using rabbit anti-mouse (RAM) IgG (GE Healthcare BR-1008-38) covalently coupled to a BIACORE™ CM5 chip (GE HEalthcare BR-1000-14) by primary amine chemistry (NHS/EDC activated) (GE Healthcare amine coupling kit BR-1000-50). Chimeric and humanized competitor monoclonal antibodies were analyzed using anti-human, Fc specific monoclonal (GE Healthcare BR-1008-39) similarly coupled. Each chip was also prepared with a reference surface to which no capture reagent antibody is coupled. Sensorgrams for cycles run with differing analyte concentrations are acquired for kinetic analysis. A cycle consists of capturing the monoclonal on the surface, a short stabilization period with flowing run buffer followed by binding of a defined concentration of analyte (ECD or sub-domain protein). Injection of analyte for surface binding (3-4 minutes) yields the association part of curve. This is followed by buffer only flow (3-4 minutes) which allows recording of dissociation data.
(§2) The general method for affinity analysis is as follows. First, chips were prepared and tested for reasonance units (RU) captured for several monoclonal antibody concentrations. Kinetic cycles were then run in which monoclonal antibody was captured to a level of approximately 100RU, analyte protein was allowed to bind then dissociate and the surface was regenerated to remove all but covalently coupled protein. RAM chips were regenerated with capture kit supplied 100 mM glycine pH1.7 and anti-human chips with capture kit supplied 3M MgCl₂. […] Several buffer cycles were run prior to analyte protein to ensure cycle consistency and in some experiments a buffer cycle is used a “double reference[.]” Analytes used were human full length HER3 extra cellular domain (ECD), separate sub-domains of the extracellular portion of human HER3 (D1, D2, D3, D4), or combination HER3 domain proteins (D1-2 and D2-3).

Assay [3] deals with T2, Human HER3 ECD domain III (human, UniProt P21860 330-495).
T2 construct: also called D3; Domain 3
The assay is described as above. As to the method:
as §1, §2

Assay [4] deals with T1, Full-length human HER3 extracellular …. As to the kind of experiment: affinity summary table, method not given.
The target in assay [5] is T2, Human HER3 ECD domain III. As to the kind of experiment: affinity summary table, method not given.

T1 sequence (P21860 20-643): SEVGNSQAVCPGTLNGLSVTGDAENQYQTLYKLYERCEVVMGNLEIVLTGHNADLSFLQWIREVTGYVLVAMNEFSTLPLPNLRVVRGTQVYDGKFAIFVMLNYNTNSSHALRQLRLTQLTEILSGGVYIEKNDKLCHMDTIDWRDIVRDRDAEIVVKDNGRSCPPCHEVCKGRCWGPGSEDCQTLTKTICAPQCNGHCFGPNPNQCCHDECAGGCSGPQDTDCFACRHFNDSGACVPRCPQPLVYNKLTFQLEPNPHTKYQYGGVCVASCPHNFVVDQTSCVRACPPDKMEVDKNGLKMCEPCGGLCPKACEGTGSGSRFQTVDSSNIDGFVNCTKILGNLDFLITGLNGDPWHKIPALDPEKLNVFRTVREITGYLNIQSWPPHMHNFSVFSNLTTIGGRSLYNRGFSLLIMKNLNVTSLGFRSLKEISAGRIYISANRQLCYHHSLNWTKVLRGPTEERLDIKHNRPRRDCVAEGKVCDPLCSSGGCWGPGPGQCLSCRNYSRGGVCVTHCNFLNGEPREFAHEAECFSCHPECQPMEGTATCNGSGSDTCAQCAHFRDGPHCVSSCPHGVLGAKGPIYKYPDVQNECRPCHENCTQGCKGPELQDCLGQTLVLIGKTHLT
T2 sequence (P21860 330-495): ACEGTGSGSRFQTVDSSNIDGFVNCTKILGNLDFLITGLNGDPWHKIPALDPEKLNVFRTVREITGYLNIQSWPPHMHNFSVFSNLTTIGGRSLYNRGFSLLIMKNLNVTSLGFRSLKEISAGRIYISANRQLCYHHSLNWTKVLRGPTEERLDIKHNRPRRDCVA

B1: 15D5 H3L1 antibody (antibody, V domains shown)
VH: QVQLVQSGAEVKKPGASVKVSCKASGYTFTDYNMNWVRQAPGQGLEWMGGINPNYGTTVYNQKFKGKATLTVDQSISTAYMELSRLRSDDTAVYYCARMTTIVPFDYWGQGTTVTVSS
VL: DIQMTQSPSSLSASVGDRVTITCRASQDISNYLNWYQQKPGKAPKLLIYYTSTLHSGVPSRFSGSGSGTDYTFTISSLQPEDIATYYCQQGYTLPWTFGGGTKVEIKR
notes: Humanized 15D5 variant
Usually Kd stands for a measure of binding affinity in units of concentration. The term koff denotes a measure of how fast the partners let go of each other. A lower koff goes with slow dissociation. A word on the kon: it is a measure of how fast the partners come together. In assay [1], B1 came in with a Kd of 4.21 nM, a koff of 0.000171 s⁻¹ and a kon of 40500 M⁻¹ s⁻¹.

B2: 15D5 H2L2 antibody (antibody, V domains shown)
VH: B1 VH with R38K, M48I
VL: B1 VL with F73L, I83F, G100Q, V104L
notes: Humanized 15D5 variant
In assay [1], B2 had a Kd of 12.8 nM, a koff of 0.00407 s⁻¹ and a kon of 317000 M⁻¹ s⁻¹.

B3: 15D5 H1L3 antibody (antibody, V domains shown)
VH: B1 VH with V2F, T28S, R38K, M48I
VL: B1 VL with Y71F, F73L, I83F, G100Q, V104L
notes: Humanized 15D5 variant; also called 15D5 HIL3 antibody
In assay [1], B3 yielded a Kd of 10 nM, a koff of 0.000345 s⁻¹ and an association rate constant (kon) of 34400 M⁻¹ s⁻¹.

B4: 15D5 H3L3 antibody (antibody, V domains shown)
VH: B1 VH
VL: B1 VL with Y71F, F73L, I83F, G100Q, V104L
notes: also called 15D5 H31.3 antibody
In the case of B4, in assay [1], the dissociation constant (Kd) stood at 8.72 nM, the koff stood at 0.000367 s⁻¹ and the kon came to 42100 M⁻¹ s⁻¹.

B5: 15D5 H4L3 (antibody, V domains shown)
VH: B1 VH with A68V, Q74T
VL: B1 VL with Y71F, F73L, I83F, G100Q, V104L
notes: To be rechecked
Regarding B5, in assay [1], binding was characterised by a dissociation constant (Kd) of 24.7 nM, the koff is 0.000935 s⁻¹ and the kon is 37900 M⁻¹ s⁻¹.

B6: 15D5 H2L1 antibody (antibody, V domains shown)
VH: B1 VH with R38K, M48I
VL: B1 VL
notes: Humanized 15D5 variant
In assay [1], B6 displayed a Kd of 8.7 nM, a koff of 0.000365 s⁻¹ and a kon of 41900 M⁻¹ s⁻¹.

B7: 15D5 H1L1 antibody (antibody, V domains shown)
VH: B1 VH with V2F, T28S, R38K, M48I
VL: B1 VL
For B7, in assay [1], the dissociation constant (Kd) came out at 7.19 nM, the off-rate constant (koff) turned out to be 0.000267 s⁻¹ and the kon was found to be 37100 M⁻¹ s⁻¹.

B8: Chimeric 1D9 antibody (antibody, V domains shown)
VH: QVQLQQPGAELVRPGTSVKLSCKASGYTFTSYWMHWVKQRPGQGLEWIGVIDPSDGYSHYNQKFKGKATLTVDTSSSTAYMQLSSLTSEDSAVYYCAGGLAGTLDYWGQGTTLTVSS
VL: DVLMTQTPLSLPVSLGDQASISCRSSQSIVHSSGNTYLQWFLQKPGQSPKLLISKVSNRFSGVPDRFSGSGSGTDFTLRISRVEAEDLGLYYCFQGSHVPWTFGGGTKLEIK
notes: Murine VH fused to human IgG1 CH1-Fc, murine VL fused to human CK; also called Ch1D9; ch1D9
In the case of B8, the Kd in assay [2] is 1.1 nM; in assay [3], 0.2 nM; in assay [4], ~1 nM; in assay [5], 0.198 nM. For the same molecule, the on-rate (kon) was 740000 M⁻¹ s⁻¹ in assay [2] and 4.58e+06 M⁻¹ s⁻¹ in assay [3].

B9: 1D9 H6L0 RR antibody (antibody, V domains shown)
VH: QVQLVQSGAEVKKPGASVKVSCKASGYTFTSYWMHWVRQAPGQGLEWMGVIDPSDGYSHYNQKFKGKVTLTVDTSISTAYMELSRLRSDDTAVYYCAGGLAGTLDYWGQGTTVTVSS
VL: DIQMTQSPSSLSASVGDRVTITCRSSQSIVHSSGNTYLQWYQQKPGKAPKLLIYKVSNRFSGVPSRFSGSGSGTDFTLTISSLQPEDFAVYYCFQGSHVPWTFGQGTKLEIKR
notes: Humanized RR variant
On to B9, for which, in assay [1], the Kd came to 7.51 nM, the koff came out at 0.00366 s⁻¹ and the association rate constant (kon) came to 487000 M⁻¹ s⁻¹.

B10: 1D9 H0L7 RR antibody (antibody, V domains shown)
VH: B9 VH with K67R, L70M, V72R, G98R
VL: DVVMTQSPLSLPVTLGQPASISCRSSQSIVHSSGNTYLQWFQQRPGQSPRRLISKVSNRFSGVPDRFSGSGSGTDFTLKISRVEAEDVGVYYCFQGSHVPWTFGQGTKLEIKR
notes: Humanized RR variant; captured by anti-human Fc
For B10, in assay [1], the Kd was 59.5 nM, the koff is 0.00195 s⁻¹ and the kon is 32700 M⁻¹ s⁻¹.

B11: 1D9 H2L2 RR antibody (antibody, V domains shown)
VH: B9 VH with K67R, L70M, V72R
VL: B9 VL with Y41F
notes: Humanized RR variant
As for B11, in assay [1], the Kd came out at 13.4 nM, the koff was 0.00444 s⁻¹ and the kon amounted to 331000 M⁻¹ s⁻¹.

B12: 1D9 H0L9 RR antibody (antibody, V domains shown)
VH: B9 VH with K67R, L70M, V72R, G98R
VL: B10 VL with R50K, R51L
notes: Humanized RR variant; also called 1D9 HOL9 RR antibody
In assay [1], B12 returned a Kd of 38.1 nM, a koff of 0.0144 s⁻¹ and a kon of 377000 M⁻¹ s⁻¹.

B13: 1D9 H6L3 RR antibody (antibody, V domains shown)
VH: B9 VH
VL: B9 VL with I2V
notes: Humanized RR variant
In assay [1], B13 had a Kd of 3.91 nM, a koff of 0.00302 s⁻¹ and a kon of 773000 M⁻¹ s⁻¹.

B14: 1D9 H6L4 RR antibody (antibody, V domains shown)
VH: B9 VH
VL: B9 VL with Q3L
For B14, in assay [1], binding was characterised by a dissociation constant (Kd) of 7.89 nM, the koff came out at 0.0041 s⁻¹ and the kon was 519000 M⁻¹ s⁻¹.

B15: 1D9 H6L9 RR antibody (antibody, V domains shown)
VH: B9 VH
VL: B10 VL with R50K, R51L
notes: Humanized RR variant
Regarding B15, in assay [1], the dissociation constant (Kd) amounted to 3.35 nM, the koff was 0.00223 s⁻¹ and the kon worked out at 665000 M⁻¹ s⁻¹.

B16: 1D9 H3L6 RR antibody (antibody, V domains shown)
VH: B9 VH with L70M, V72R, G98R
VL: B10 VL with S54Y
Turning to B16, in assay [1], binding was put at a Kd of 95.8 nM, the koff worked out at 0.00292 s⁻¹ and the kon turned out to be 30400 M⁻¹ s⁻¹.

B17: Humanized 1D9 RR antibody (H6L2) (antibody, human IgG1, V domains shown)
VH: B9 VH
VL: DIQMTQSPSSLSASVGDRVTITCRSSQSIVHSSGNTYLQWFQQKPGKAPKLLIYKVSNRFSGVPSRFSGSGSGTDFTLTISSLQPEDFAVYYCFQGSHVPWTFGQGTKLEIKRR
notes: Human IgG1; also called 1D9 H6L2 RR antibody; h1D9 RR wt
As for B17, the values for the dissociation constant (Kd) in assay [1], in assay [4] and in assay [5] were 3.96 nM, 4.1 nM and 0.018 nM, respectively. Also, the koff in assay [1] came to 0.0017 s⁻¹. Also, in assay [1], the kon was 430000 M⁻¹ s⁻¹.

B18: 1D9 H6L5 RR antibody (antibody, V domains shown)
VH: B9 VH
VL: B9 VL with I2V, Q3L, Y41F, Y54S
notes: also called 1D9 116L5 RR antibody
As to B18, in assay [1], binding was put at a Kd of 6.87 nM, the koff is 0.00371 s⁻¹ and the kon is 540000 M⁻¹ s⁻¹.

B19: 1D9 H6L6 RR antibody (antibody, V domains shown)
VH: B9 VH
VL: B10 VL with S54Y
notes: To be rechecked
In assay [1], B19 yielded a Kd of 7.02 nM, a koff of 0.00487 s⁻¹ and an on-rate constant (kon) of 694000 M⁻¹ s⁻¹.

B20: 1D9 H3L2 RR antibody (antibody, V domains shown)
VH: B9 VH with L70M, V72R, G98R
VL: B9 VL with Y41F
notes: Humanized RR variant
Regarding B20, in assay [1], the Kd came out at 59.4 nM, the koff worked out at 0.00316 s⁻¹ and the kon stood at 53300 M⁻¹ s⁻¹.
